Experimental findings from patent US20260201008A1, “SECRETIN-DERIVED GLP1R SELECTIVE AGONISTS” (GUBRA A/S, priority 2023, published 2026) are described below.

Assay [1] deals with human GLP-1 receptor (hGLP1R) (human, UniProt P43220 24-463). The experiment in a line: cell-based or functional assay.
Assay [2] has as its target human secretin receptor (hSCTR) (human, UniProt P47872 23-440). The experiment in a line: cell-based or functional assay.

Numbered stars: 1 amine (or outer) side, 2 acyl side, 3 side chain; on linkers, the order of the positions; unused ones are H or OH. Square brackets hold non-standard residues; d marks the D form. Side chains are listed from the residue outwards. Ends that are not written are not given here. * marks the point of attachment. C20 diacid = O=C(O)CCCCCCCCCCCCCCCCCCC(=O)*; γGlu = O=C(O)[C@H](CCC(=O)[*:2])N[*:1]; AEEA = NCCOCCOCC(=O)O; Aib = CC(C)(N)C(=O)O

human secretin receptor (hSCTR), sequence (P47872 23-440): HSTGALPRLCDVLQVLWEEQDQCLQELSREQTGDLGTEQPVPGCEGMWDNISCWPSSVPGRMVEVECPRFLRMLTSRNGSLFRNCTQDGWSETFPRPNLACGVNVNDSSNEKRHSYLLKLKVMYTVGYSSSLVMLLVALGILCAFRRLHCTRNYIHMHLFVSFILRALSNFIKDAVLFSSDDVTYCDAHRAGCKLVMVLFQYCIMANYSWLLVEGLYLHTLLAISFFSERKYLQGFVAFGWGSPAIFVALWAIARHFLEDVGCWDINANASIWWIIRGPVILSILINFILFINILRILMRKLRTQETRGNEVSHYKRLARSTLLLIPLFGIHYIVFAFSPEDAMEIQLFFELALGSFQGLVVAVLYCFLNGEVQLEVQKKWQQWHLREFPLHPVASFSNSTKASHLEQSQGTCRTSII

Turning to H[Aib]EGTFTSDVSALKEEA[Aib]LQRFLEHLV-NH2 (not fully specified (residue 14)) [SEQ ID NO: 148], the “pEC50 hGLPR1” value in assay [1] was 10.8 -log M. Moreover, the “pEC50 hSCTR” value in assay [2] is 7.2 -log M.

B1: SEQ ID NO: 142 (peptide)
peptide: HGEGTFTSDVSYLKEEA[Aib]LQRFLEHLV-NH2
modifications: not fully specified (residue 14); also: K14 lipidated with C20DA[γE][OEG][OEG]- or C18DA[γE][OEG][OEG]-
For the molecule B1, in assay [1], the “pEC50 hGLPR1” value is 10.9 -log M. Also, the “pEC50 hSCTR” value in assay [2] was 4.7 -log M.

Turning to H[Aib]EGTFTSDVSYLKEEA[Aib]IQRFLEHLV-NH2 (not fully specified (residue 14)) [SEQ ID NO: 139], in assay [1], the “pEC50 hGLPR1” value is 11.2 -log M. Further, the “pEC50 hSCTR” value in assay [2] was 6.9 -log M.

B2: SEQ ID NO: 145 (peptide)
peptide: H[Aib]EGTFTSDVSHLKEEA[Aib]LQRFLEHLV-NH2
modifications: not fully specified (residue 14); also: K14 lipidated with C20DA[γE][OEG][OEG]- or C18DA[γE][OEG][OEG]-
Consider B2, for which the “pEC50 hGLPR1” value in assay [1] was 11.1 -log M. In addition, in assay [2], the “pEC50 hSCTR” value was 7.2 -log M.

In the case of H[Aib]EGTFTSDVSTLKE[Aib]AAEQRFLEHLV-NH2 (not fully specified (residue 14)) [SEQ ID NO: 16], the “pEC50 hGLPR1” value in assay [1] was 10.4 -log M. Besides, in assay [2], the “pEC50 hSCTR” value is 6.9 -log M.

Take H[Aib]EGTFTSDVSYLKEEA[Aib]LQRFLEELV-NH2 (not fully specified (residue 14)) [SEQ ID NO: 151]: in assay [1], the “pEC50 hGLPR1” value is 10.6 -log M. For the same molecule, the “pEC50 hSCTR” value in assay [2] was 6.9 -log M.

On to H[Aib]EGTFTSDVSLLKEEA[Aib]LQRFLEHLV-NH2 (not fully specified (residue 14)) [SEQ ID NO: 149], for which, in assay [1], the “pEC50 hGLPR1” value was 10.9 -log M. Moreover, the “pEC50 hSCTR” value in assay [2] was 7.5 -log M.

On to H[Aib]EGTFTSDVSYLKEEA[Aib]EQRFLEHLV-NH2 (not fully specified (residue 14)) [SEQ ID NO: 150], for which the “pEC50 hGLPR1” value in assay [1] is 11.3 -log M. The “pEC50 hSCTR” value in assay [2] is 5.5 -log M.

For H[Aib]EGTFTSDVSYLYEEA[Aib]LQRFLEKLV-NH2 (not fully specified (residue 25)) [SEQ ID NO: 143], the “pEC50 hGLPR1” value in assay [1] is 11 -log M. Also, the “pEC50 hSCTR” value in assay [2] was 6.1 -log M.

Consider H[Aib]EGTFTSDVSDLKEEA[Aib]LQRFLEHLV-NH2 (not fully specified (residue 14)) [SEQ ID NO: 153], for which the “pEC50 hGLPR1” value in assay [1] is 10.7 -log M. Also, the “pEC50 hSCTR” value in assay [2] is 6.5 -log M.

B3: SEQ ID NO: 144 (peptide)
peptide: H[Aib]EGTFTSDVSYLKEEA[Aib]LQRFLEYLV-NH2
modifications: not fully specified (residue 14); also: K14 lipidated with C20DA[γE][OEG][OEG]- or C18DA[γE][OEG][OEG]-
Take B3: the “pEC50 hGLPR1” value in assay [1] is 10.8 -log M. The “pEC50 hSCTR” value in assay [2] was 6.6 -log M.

As to H[Aib]EGTFTSDVSYLHEEA[Aib]LQRFLEKLV-NH2 (not fully specified (residue 25)) [SEQ ID NO: 164], the “pEC50 hGLPR1” value in assay [1] was 10.7 -log M. Besides, the “pEC50 hSCTR” value in assay [2] was 6.6 -log M.

Turning to H[Aib]EGTFTSDVSTLK([AEEA-AEEA-γGlu-C20 diacid])EEA[Aib]LQRFLEHLV-NH2 [SEQ ID NO: 165], the “pEC50 hGLPR1” value in assay [1] was 11.2 -log M. The “pEC50 hSCTR” value in assay [2] was 8 -log M.

Turning to H[Aib]VGTFTSDVSYLKEEA[Aib]LQRFLEHLV-NH2 (not fully specified (residue 14)) [SEQ ID NO: 155], the “pEC50 hGLPR1” value in assay [1] is 10.9 -log M. Besides, the “pEC50 hSCTR” value in assay [2] is 4.6 -log M.

Turning to H[Aib]EGTFTSDVSYLKEEA[Aib][Aib]QRFLEHLV-NH2 (not fully specified (residue 14)) [SEQ ID NO: 152], the “pEC50 hGLPR1” value in assay [1] is 10.9 -log M. Moreover, the “pEC50 hSCTR” value in assay [2] is 5.4 -log M.

H[Aib]EGTFTSDVSVLKE[Aib]AAAQRFLEHLV-NH2 (not fully specified (residue 14)) [SEQ ID NO: 15]: in assay [1], the “pEC50 hGLPR1” value was 10.1 -log M. Also, the “pEC50 hSCTR” value in assay [2] is 6.5 -log M.

Regarding H[Aib]EGTFTSDVSRLK([AEEA-AEEA-γGlu-C20 diacid])EEAASQRFLEHLV-NH2 [SEQ ID NO: 17], the “pEC50 hGLPR1” value in assay [1] was 10.6 -log M. In addition, in assay [2], the “pEC50 hSCTR” value was 6.6 -log M.

As for H[Aib]EGTFTSDVSVLKEEA[Aib]LQRFLEHLV-NH2 (not fully specified (residue 14)) [SEQ ID NO: 138], in assay [1], the “pEC50 hGLPR1” value was 10.9 -log M. Besides, in assay [2], the “pEC50 hSCTR” value was 7.5 -log M.

In the case of H[Aib]WGTFTSDVSYLKEEA[Aib]LQRFLEHLV-NH2 (not fully specified (residue 14)) [SEQ ID NO: 160], the “pEC50 hGLPR1” value in assay [1] was 9.1 -log M. Moreover, in assay [2], the “pEC50 hSCTR” value was 4.6 -log M.

For H[Aib]EGTFTSDVSGLK([AEEA-AEEA-γGlu-C20 diacid])EEA[Aib]LQRFLEHLV-NH2 [SEQ ID NO: 167], the “pEC50 hGLPR1” value in assay [1] was 11.2 -log M. For the same molecule, the “pEC50 hSCTR” value in assay [2] is 7 -log M.

For H[Aib]EGTFTSDVS[Aib]LKEEA[Aib]LQRFLEHLV-NH2 (not fully specified (residue 14)) [SEQ ID NO: 163], in assay [1], the “pEC50 hGLPR1” value was 10.9 -log M. The “pEC50 hSCTR” value in assay [2] is 7.4 -log M.

H[Aib]QGTFTSDVSYLKEEA[Aib]LQRFLEHLV-NH2 (not fully specified (residue 14)) [SEQ ID NO: 156]: in assay [1], the “pEC50 hGLPR1” value is 10.8 -log M. In addition, the “pEC50 hSCTR” value in assay [2] is 4.4 -log M.

For H[Aib]EGTFTSDVSYLKEEA[Aib]AQRFLEHLV-NH2 (not fully specified (residue 14)) [SEQ ID NO: 146], the “pEC50 hGLPR1” value in assay [1] was 11.6 -log M. For the same molecule, in assay [2], the “pEC50 hSCTR” value is 5.7 -log M.

Take H[Aib]EGTFTSDVSYLKEEA[Aib]TQRFLEHLV-NH2 (not fully specified (residue 14)) [SEQ ID NO: 162]: the “pEC50 hGLPR1” value in assay [1] is 12.2 -log M. The “pEC50 hSCTR” value in assay [2] is 6.9 -log M.

As to H[Aib]YGTFTSDVSYLKEEA[Aib]LQRFLEHLV-NH2 (not fully specified (residue 14)) [SEQ ID NO: 159], the “pEC50 hGLPR1” value in assay [1] is 9.1 -log M. Moreover, in assay [2], the “pEC50 hSCTR” value was 4.6 -log M.

B4: SEQ ID NO: 141 (peptide)
peptide: H[Aib]EGTFTSDVSYLKEEA[Aib]LQRYLEHLV-NH2
modifications: not fully specified (residue 14); also: K14 lipidated with C20DA[γE][OEG][OEG]- or C18DA[γE][OEG][OEG]-
In the case of B4, the “pEC50 hGLPR1” value in assay [1] was 11.4 -log M. The “pEC50 hSCTR” value in assay [2] was 6.6 -log M.

In the case of H[Aib]EGTFTSDVSYL[Aib]EEA[Aib]LQRFLEKLV-NH2 (not fully specified (residue 25)) [SEQ ID NO: 158], in assay [1], the “pEC50 hGLPR1” value was 10.4 -log M. The “pEC50 hSCTR” value in assay [2] is 5.8 -log M.

With HAEGTFTSDVSYLK([AEEA-AEEA-γGlu-C20 diacid])EEA[Aib]LQRFLEHLV-NH2 [SEQ ID NO: 166], the “pEC50 hGLPR1” value in assay [1] was 11.1 -log M. Moreover, the “pEC50 hSCTR” value in assay [2] was 6.5 -log M.

H[Aib]EGTFTSDVSYLKEEA[Aib]VQRFLEHLV-NH2 (not fully specified (residue 14)) [SEQ ID NO: 161]: in assay [1], the “pEC50 hGLPR1” value is 11.4 -log M. In addition, the “pEC50 hSCTR” value in assay [2] was 6.8 -log M.

Take H[Aib]EGTFTSDVSYLKEEA[Aib]LQRFLEKLV-NH2 (not fully specified (residue 14)) [SEQ ID NO: 147]: the “pEC50 hGLPR1” value in assay [1] was 11.3 -log M. Also, the “pEC50 hSCTR” value in assay [2] was 7.2 -log M.

With H[Aib]EGTFTSDVSYLKEEA[Aib]GQRFLEHLV-NH2 (not fully specified (residue 14)) [SEQ ID NO: 154], in assay [1], the “pEC50 hGLPR1” value is 10.8 -log M. Besides, the “pEC50 hSCTR” value in assay [2] is 5.4 -log M.

As for H[Aib]EGTFTSDVSRLK([AEEA-AEEA-γGlu-C20 diacid])EFAAAQRFLEHLV-NH2 [SEQ ID NO: 2], the “pEC50 hGLPR1” value in assay [1] is 10.1 -log M. Moreover, the “pEC50 hSCTR” value in assay [2] is 6.3 -log M.

B5: SEQ ID NO: 140 (peptide)
peptide: H[Aib]EGTFTSDVSPLKEEA[Aib]LQRFLEHLV-NH2
modifications: not fully specified (residue 14); also: K14 lipidated with C20DA[γE][OEG][OEG]- or C18DA[γE][OEG][OEG]-
Turning to B5, the “pEC50 hGLPR1” value in assay [1] was 8.9 -log M. The “pEC50 hSCTR” value in assay [2] was 4.7 -log M.

Take H[Aib]EGTFTSDVSYLKEEA[Aib]QQRFLEHLV-NH2 (not fully specified (residue 14)) [SEQ ID NO: 157]: in assay [1], the “pEC50 hGLPR1” value is 11.6 -log M. Further, the “pEC50 hSCTR” value in assay [2] is 6.5 -log M.
